According to patent US20110123525A1 (THROMBOGENICS N V, published 2011):
Where a chain is given by its changes, count along the chain named.

B1: humanized scFv of 16D3 (scFv)
scFv: QVQLQQSGAELVKPGASVKISCKASGYTFTDYYINWVKLAPGQGLEWIGWIYPGSGNTKYNEKFKGKATLTIDTSSSTAYMQLSSLTSEDTAVYFCVRDSPFFDYWGQGTLLTVSSGGGGSGGGGSGGGGSDIVLTQSPDSLAVSLGERVTMNCKSSQSLLNSGMRKSFLAWYQQKPGQSPKLLIYWASTRESGVPDRFTGSGSGTDFTLTISSVQAEDVAVYYCKQSYHLFTFGSGTKLEIKGSYPYDVPDYAGSHHHHHH
notes: also called humanized scFv16D3; scFvhp16D3mut
B2: scFv of murine antibody 16D3 (scFv)
scFv: B1 scFv with V2I, A9P, A40K, L111T, T136S, D140S, L146A, R149K, N153R, V220L
notes: also called scFv16D3; scFv hp16D3
B3: murine monoclonal anti-human PlGF antibody 16D3 (antibody, V domains shown)
VH: QIQLQQSGPELVKPGASVKISCKASGYTFTDYYINWVKLKPGQGLEWIGWIYPGSGNTKYNEKFKGKATLTIDTSSSTAYMQLSSLTSEDTAVYFCVRDSPFFDYWGQGTTLTVSS
VL: DIVLSQSPSSLAVSAGEKVTMRCKSSQSLLNSGMRKSFLAWYQQKPGQSPKLLIYWASTRESGVPDRFTGSGSGTDFTLTISSVQAEDLAVYYCKQSYHLFTFGSGTKLEIK
notes: Whole mouse antibody from hybridoma LMBP 6399CB; also called anti-hPlGF; hp16D3mousecomplAB
B4: humanized antibody 16D3 IgG4 kappa (antibody, V domains shown)
VH: B3 VH with I2V, P9A, K40A, T111L
VL: B3 VL with S5T, S9D, A15L, K18R, R22N, L89V
notes: Expressed transiently in HEK 293 cells; also called hu16D3; Hu16D3 IgG4κ
B5: humanized Fab 16D3 (Fab, V domains shown)
VH: B3 VH with I2V, P9A, K40A, T111L
VL: B3 VL with S5T, S9D, A15L, K18R, R22N, L89V
notes: also called hp16D3mutcomplFab; hp16D3mutcmplFab

Assays:
[1] = target: T1, recombinant human PlGF-2 (produced in Pichia) (human, UniProt P49763-3 19-170, limits assumed); assay: Biacore, rhuPlGF-2 (Pichia) immobilized, antibody injected
T1 construct: also called huPlGF-2; rhuPlGF-2
T1 sequence (looked up): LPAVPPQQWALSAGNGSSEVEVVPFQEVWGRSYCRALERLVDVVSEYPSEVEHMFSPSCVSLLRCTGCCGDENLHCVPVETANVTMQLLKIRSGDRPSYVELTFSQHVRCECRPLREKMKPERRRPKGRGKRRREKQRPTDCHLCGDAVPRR

human PlGF-1 [2] = target: T2, human PlGF-1 (human, UniProt P49763-2 19-149, limits assumed); assay: ELISA, plate coated with 1 µg/ml huPlGF-1, detection with murine anti-HA and goat anti-murine IgG-HRP, OPD
T2 construct: also called huPlGF-1; huPlGF
T2 sequence (looked up): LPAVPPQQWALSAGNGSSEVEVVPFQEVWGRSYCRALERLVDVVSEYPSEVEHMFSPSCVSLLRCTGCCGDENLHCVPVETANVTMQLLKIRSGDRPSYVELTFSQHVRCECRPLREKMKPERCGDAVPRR
Experimental: ELISA plates were coated ON with 1 μg/ml huPlGF-1 in PBS, 200 μL/well, 4° C. After blocking with 1% BSA, 1 hr, RT, a dilution series of scFv16D3/humanized scFv16D3 was added, 200 μL/well, the antibody fragment was allowed to bind for 1 hr, RT. Bound scFv16D3 was detected with murine anti-HA (180 μL/well, 1 hr RT) followed by incubation with goat-anti-murine IgG-HRP (Sigma), 170 μL/well, 1 hr, RT. The assay was developed with OPD.

human PlGF-1 [3] = target: T2, human PlGF-1; assay: ELISA, plate coated with huPlGF-1, detection with anti-huIgG-HRP (Fab specific), OPD
Experimental: ELISA plates were coated ON with […] huPlGF-1 in PBS, 100 μL/well, 4° C. After blocking with 1% BSA, 1 hr, RT, a dilution series of humanized Fab16D3 was added, 100 μL/well, the antibody fragment was allowed to bind for 1 hr, RT. Bound humanized Fab16D3 was detected with anti-huIgG-HRP(Fab specific) (100 μL/well, 1 hr RT). The assay was developed with OPD.

Binder | Kd [1] | EC50 (read off the curve) (human PlGF-1 [2]) | EC50 (read off the curve) (human PlGF-1 [3])
B1 | 195 pM | ~0.1 µg/mL | 
B2 |  | ~0.1 µg/mL | 
B3 | 290 pM |  | 
B4 | 161 pM |  | 
B5 | 131 pM |  | ~90 µg/mL
